Format in all cases: cell-based, human
Experiment [1] has as its system PD-1 positive (transduced) KG-1 cells. Description: IFN gamma secretion assay in PD-1 transduced KG-1 cells (Example 11). As for the experimental part:
The KG-1 cell line was used to generate a PD-1 expressing cell line and furthermore, to measure IFNγ release upon incubation with IL-18 variants and corresponding IL-18 immunocytokines.
PD-1 expressing cell line generation: Briefly, KG-1 cells were transduced using lentiviral particles carrying the human PD-1 gene (PDCD1 NM_005018; Origene, CAT #: RC210364L3V) at a MOI (Multiplicity of Infection) of 30. Spinfection was performed at 1260 g during 90 min at 37° C. in the presence of 5 μg/ml of Polybrene and 10 mM of HEPES in complete culture media (RPMI, 10% FBS, 1% L-Glutamine). […]
IFNγ release was assessed in PD-1 positive (transduced) KG-1 cells, as well as in the parental PD-1 negative cells. […] The lowest concentration assessed was […]. After incubation, IFNγ release was measured using the LEGENDplex custom human mix and match KIT (Biolegend LEGENDplex™ Human IFN-γ Capture Bead B5, 13X #740942, LEGENDplex™ HU Essential Immune Response Panel Detection Abs, #740931, LEGENDplex™ Buffer Set A #740368). […] Fluorescence measurements were done with a Quanteon Flow Cytometer from Acea Biosciences. For analysis, MFI values (median fluorescence intensity) were exported and plotted against concentrations used. The EC50 values (half maximal effective concentration) were calculated based on a variable slope and four parameter analysis using GraphPad PRISM software version 9.

The test system of experiment [2] is parental PD-1negative NK-92 cells. Description: IFN gamma secretion assay in parental PD-1 negative NK-92 cells (Example 17). The conditions noted are these: IFNγ secretion. The method, then: (§1) To show selectivity of the anti-PD1-IL18 immunocytokine (IC) for PD-1 positive cells, the NK-92 cell line was used to generate a PD-1 expressing cell line and furthermore, to measure IFN[…] release upon incubation with IL-18 variants and ICs.
(§2) On the day of experiment, parental PD-1negative and PD-1positive transduced cells were harvested and washed with PBS 1× and resuspended in medium (w/o IL-2) containing 1 ng/ml of recombinant human Interleukin-12 (SinoBiologicals, Cat #CT011-H08H). After counting, cells were seeded at 100 000 cells/well in a 384 well culture plate and incubated at 37° C./5% CO2. When indicated, cells were preincubated with anti-PD-1 antibody LZM-009 at 17 uM during 30 min at 37° C. […] The lowest concentration assessed was 0.8 fM.
(§3) After 16-20 h incubation at 37° C./5% CO2, 5 μl of supernatant were carefully transferred to a 384 microwell OptiPlate (Perkin Elmer; Cat #6007270) and Interferon-gamma (IFNγ) levels were measured using the Human IFNγ AlphaLISA Assay Kit (Perkin Elmer, Cat #AL217C). […] AlphaLISA signal was then measured on an Enspire plate reader (Perkin Elmer) using 680 and 615 nm as excitation and emission wavelengths respectively. Half maximal effective concentration (EC50) was calculated based on a variable slope, four parameter analysis using GraphPad PRISM software.

In experiment [3] the test system is PD-1positive transduced NK-92 cells. Description: IFN gamma secretion assay in PD-1 positive transduced NK-92 cells (Example 17). As for the experimental part: as §1, §2, §3
For experiment [4] the test system is unchanged. Description: IL-18BP mediated inhibition of IFN gamma secretion in PD-1 positive transduced NK-92 cells (Example 18). As for the experimental part: To characterize the resistance of anti-PD1-IL18 immunocytokines (IC) on PD-1 positive cells, the NK-92 cell line was used to generate a PD-1 expressing cell line and furthermore, to measure the inhibition of IFN[…] release upon incubation with IL-18 variants and ICs in the presence of increasing quantities of human IL-18BP.
On the day of experiment, parental PD-1^negative and PD-1^positive transduced cells were harvested and washed with PBS 1× and resuspended in medium (w/o IL-2) containing 1 ng/ml of recombinant human Interleukin-12 (SinoBiologicals, Cat #CT011-H08H). After counting, cells were seeded at 100 000 cells/well in a 384 well culture plate and incubated at 37° C./5% CO2. When indicated, cells were preincubated with anti-PD-1 antibody LZM-009 at 17 uM during 30 min at 37° C. […]
After 16-20 h incubation at 37° C./5% CO2, 5 μl of supernatant were carefully transferred to a 384 microwell OptiIPlate (Perkin Elmer; Cat #6007270) and Interferon-gamma (IFNγ) levels measured using the Human IFNγ AlphaLISA Assay Kit (Perkin Elmer, Cat #AL217C). […] AlphaLISA signal was then measured on an Enspire plate reader (Perkin Elmer) using 680 and 615 nm as excitation and emission wavelengths respectively. Half maximal inhibitory concentration (IC50) was calculated based on a variable slope, four parameter analysis using GraphPad PRISM software.

B1: SEQ ID NO: 30: IL-18 polypeptide: E6K, V11I, C38A, K53A, T63A, C76A, C127A (protein)
chain: YFGKLKSKLSIIRNLNDQVLFIDQGNRPLFEDMTDSDARDNAPRTIFIISMYADSQPRGMAVAISVKCEKISTLSAENKIISFKEMNPPDNIKDTKSDIIFFQRSVPGHDNKMQFESSSYEGYFLAAEKERDLFKLILKKEDELGDRSIMFTVQNED
Regarding B1, the concentration for a half-maximal effect (EC50) turned out to be 8 pM in experiment [1] (IFNγ secretion, PD-1 transduced KG-1); 2.4 pM in experiment [2]; 2.8 pM in experiment [3] (IFNγ secretion). The “PD-1^neg/PD-1^pos EC50 ratio” value in experiment [1] (KG-1 cells) is on record as 1.336; in experiment [3] (NK-92 cells), 0.9. In experiment [4] (IL-18BP-mediated inhibition of IFNγ secretion, IL-18 analyte 1 nM), this molecule gave an IC50 of 80300 pM. In addition, the “PD-1^pos/PD-1^neg IC50 ratio” value in experiment [4] (NK-92 cells) came to 1.0.

In general, EC50 refers to the concentration that produces a half-maximal response. In general, IC50 refers to the concentration needed to halve the response being measured. A low value points to greater potency.

(Values after patent US20250186597A1, “TARGETED IMMUNE ACTIVATION WITH IL-18 IMMUNOCYTOKINES” (BRIGHT PEAK THERAPEUTICS AG, priority 2023, published 2025).)
